Measured values: PMC3744345

What was measured:
amyloid-β (Homo sapiens) = amyloid-β (Homo sapiens) (UniProt P05067); conditions: cited from earlier work
[1] = molecular target: recombinant extracellular domain of sortilin (UniProt Q99523); experiment: SPR
recombinant extracellular domain of sortilin, sequence (Q99523 78-755): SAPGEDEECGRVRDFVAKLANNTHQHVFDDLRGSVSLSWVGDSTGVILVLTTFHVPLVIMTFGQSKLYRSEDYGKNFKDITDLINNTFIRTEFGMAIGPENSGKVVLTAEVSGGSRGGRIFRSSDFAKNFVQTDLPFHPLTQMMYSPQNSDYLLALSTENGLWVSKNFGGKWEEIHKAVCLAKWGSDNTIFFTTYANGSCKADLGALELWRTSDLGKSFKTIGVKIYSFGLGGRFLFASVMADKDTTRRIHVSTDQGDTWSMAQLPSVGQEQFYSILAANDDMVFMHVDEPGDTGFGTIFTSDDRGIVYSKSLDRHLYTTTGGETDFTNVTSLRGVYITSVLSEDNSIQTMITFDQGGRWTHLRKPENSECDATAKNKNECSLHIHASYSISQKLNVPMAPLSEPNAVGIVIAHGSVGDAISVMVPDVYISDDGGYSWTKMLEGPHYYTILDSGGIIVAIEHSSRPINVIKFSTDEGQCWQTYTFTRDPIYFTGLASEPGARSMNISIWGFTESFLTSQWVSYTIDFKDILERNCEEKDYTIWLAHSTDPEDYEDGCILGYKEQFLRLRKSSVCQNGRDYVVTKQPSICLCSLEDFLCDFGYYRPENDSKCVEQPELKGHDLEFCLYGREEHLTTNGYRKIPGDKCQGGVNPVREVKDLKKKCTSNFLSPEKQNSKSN

LRP1, sequence (Q07954 20-4544): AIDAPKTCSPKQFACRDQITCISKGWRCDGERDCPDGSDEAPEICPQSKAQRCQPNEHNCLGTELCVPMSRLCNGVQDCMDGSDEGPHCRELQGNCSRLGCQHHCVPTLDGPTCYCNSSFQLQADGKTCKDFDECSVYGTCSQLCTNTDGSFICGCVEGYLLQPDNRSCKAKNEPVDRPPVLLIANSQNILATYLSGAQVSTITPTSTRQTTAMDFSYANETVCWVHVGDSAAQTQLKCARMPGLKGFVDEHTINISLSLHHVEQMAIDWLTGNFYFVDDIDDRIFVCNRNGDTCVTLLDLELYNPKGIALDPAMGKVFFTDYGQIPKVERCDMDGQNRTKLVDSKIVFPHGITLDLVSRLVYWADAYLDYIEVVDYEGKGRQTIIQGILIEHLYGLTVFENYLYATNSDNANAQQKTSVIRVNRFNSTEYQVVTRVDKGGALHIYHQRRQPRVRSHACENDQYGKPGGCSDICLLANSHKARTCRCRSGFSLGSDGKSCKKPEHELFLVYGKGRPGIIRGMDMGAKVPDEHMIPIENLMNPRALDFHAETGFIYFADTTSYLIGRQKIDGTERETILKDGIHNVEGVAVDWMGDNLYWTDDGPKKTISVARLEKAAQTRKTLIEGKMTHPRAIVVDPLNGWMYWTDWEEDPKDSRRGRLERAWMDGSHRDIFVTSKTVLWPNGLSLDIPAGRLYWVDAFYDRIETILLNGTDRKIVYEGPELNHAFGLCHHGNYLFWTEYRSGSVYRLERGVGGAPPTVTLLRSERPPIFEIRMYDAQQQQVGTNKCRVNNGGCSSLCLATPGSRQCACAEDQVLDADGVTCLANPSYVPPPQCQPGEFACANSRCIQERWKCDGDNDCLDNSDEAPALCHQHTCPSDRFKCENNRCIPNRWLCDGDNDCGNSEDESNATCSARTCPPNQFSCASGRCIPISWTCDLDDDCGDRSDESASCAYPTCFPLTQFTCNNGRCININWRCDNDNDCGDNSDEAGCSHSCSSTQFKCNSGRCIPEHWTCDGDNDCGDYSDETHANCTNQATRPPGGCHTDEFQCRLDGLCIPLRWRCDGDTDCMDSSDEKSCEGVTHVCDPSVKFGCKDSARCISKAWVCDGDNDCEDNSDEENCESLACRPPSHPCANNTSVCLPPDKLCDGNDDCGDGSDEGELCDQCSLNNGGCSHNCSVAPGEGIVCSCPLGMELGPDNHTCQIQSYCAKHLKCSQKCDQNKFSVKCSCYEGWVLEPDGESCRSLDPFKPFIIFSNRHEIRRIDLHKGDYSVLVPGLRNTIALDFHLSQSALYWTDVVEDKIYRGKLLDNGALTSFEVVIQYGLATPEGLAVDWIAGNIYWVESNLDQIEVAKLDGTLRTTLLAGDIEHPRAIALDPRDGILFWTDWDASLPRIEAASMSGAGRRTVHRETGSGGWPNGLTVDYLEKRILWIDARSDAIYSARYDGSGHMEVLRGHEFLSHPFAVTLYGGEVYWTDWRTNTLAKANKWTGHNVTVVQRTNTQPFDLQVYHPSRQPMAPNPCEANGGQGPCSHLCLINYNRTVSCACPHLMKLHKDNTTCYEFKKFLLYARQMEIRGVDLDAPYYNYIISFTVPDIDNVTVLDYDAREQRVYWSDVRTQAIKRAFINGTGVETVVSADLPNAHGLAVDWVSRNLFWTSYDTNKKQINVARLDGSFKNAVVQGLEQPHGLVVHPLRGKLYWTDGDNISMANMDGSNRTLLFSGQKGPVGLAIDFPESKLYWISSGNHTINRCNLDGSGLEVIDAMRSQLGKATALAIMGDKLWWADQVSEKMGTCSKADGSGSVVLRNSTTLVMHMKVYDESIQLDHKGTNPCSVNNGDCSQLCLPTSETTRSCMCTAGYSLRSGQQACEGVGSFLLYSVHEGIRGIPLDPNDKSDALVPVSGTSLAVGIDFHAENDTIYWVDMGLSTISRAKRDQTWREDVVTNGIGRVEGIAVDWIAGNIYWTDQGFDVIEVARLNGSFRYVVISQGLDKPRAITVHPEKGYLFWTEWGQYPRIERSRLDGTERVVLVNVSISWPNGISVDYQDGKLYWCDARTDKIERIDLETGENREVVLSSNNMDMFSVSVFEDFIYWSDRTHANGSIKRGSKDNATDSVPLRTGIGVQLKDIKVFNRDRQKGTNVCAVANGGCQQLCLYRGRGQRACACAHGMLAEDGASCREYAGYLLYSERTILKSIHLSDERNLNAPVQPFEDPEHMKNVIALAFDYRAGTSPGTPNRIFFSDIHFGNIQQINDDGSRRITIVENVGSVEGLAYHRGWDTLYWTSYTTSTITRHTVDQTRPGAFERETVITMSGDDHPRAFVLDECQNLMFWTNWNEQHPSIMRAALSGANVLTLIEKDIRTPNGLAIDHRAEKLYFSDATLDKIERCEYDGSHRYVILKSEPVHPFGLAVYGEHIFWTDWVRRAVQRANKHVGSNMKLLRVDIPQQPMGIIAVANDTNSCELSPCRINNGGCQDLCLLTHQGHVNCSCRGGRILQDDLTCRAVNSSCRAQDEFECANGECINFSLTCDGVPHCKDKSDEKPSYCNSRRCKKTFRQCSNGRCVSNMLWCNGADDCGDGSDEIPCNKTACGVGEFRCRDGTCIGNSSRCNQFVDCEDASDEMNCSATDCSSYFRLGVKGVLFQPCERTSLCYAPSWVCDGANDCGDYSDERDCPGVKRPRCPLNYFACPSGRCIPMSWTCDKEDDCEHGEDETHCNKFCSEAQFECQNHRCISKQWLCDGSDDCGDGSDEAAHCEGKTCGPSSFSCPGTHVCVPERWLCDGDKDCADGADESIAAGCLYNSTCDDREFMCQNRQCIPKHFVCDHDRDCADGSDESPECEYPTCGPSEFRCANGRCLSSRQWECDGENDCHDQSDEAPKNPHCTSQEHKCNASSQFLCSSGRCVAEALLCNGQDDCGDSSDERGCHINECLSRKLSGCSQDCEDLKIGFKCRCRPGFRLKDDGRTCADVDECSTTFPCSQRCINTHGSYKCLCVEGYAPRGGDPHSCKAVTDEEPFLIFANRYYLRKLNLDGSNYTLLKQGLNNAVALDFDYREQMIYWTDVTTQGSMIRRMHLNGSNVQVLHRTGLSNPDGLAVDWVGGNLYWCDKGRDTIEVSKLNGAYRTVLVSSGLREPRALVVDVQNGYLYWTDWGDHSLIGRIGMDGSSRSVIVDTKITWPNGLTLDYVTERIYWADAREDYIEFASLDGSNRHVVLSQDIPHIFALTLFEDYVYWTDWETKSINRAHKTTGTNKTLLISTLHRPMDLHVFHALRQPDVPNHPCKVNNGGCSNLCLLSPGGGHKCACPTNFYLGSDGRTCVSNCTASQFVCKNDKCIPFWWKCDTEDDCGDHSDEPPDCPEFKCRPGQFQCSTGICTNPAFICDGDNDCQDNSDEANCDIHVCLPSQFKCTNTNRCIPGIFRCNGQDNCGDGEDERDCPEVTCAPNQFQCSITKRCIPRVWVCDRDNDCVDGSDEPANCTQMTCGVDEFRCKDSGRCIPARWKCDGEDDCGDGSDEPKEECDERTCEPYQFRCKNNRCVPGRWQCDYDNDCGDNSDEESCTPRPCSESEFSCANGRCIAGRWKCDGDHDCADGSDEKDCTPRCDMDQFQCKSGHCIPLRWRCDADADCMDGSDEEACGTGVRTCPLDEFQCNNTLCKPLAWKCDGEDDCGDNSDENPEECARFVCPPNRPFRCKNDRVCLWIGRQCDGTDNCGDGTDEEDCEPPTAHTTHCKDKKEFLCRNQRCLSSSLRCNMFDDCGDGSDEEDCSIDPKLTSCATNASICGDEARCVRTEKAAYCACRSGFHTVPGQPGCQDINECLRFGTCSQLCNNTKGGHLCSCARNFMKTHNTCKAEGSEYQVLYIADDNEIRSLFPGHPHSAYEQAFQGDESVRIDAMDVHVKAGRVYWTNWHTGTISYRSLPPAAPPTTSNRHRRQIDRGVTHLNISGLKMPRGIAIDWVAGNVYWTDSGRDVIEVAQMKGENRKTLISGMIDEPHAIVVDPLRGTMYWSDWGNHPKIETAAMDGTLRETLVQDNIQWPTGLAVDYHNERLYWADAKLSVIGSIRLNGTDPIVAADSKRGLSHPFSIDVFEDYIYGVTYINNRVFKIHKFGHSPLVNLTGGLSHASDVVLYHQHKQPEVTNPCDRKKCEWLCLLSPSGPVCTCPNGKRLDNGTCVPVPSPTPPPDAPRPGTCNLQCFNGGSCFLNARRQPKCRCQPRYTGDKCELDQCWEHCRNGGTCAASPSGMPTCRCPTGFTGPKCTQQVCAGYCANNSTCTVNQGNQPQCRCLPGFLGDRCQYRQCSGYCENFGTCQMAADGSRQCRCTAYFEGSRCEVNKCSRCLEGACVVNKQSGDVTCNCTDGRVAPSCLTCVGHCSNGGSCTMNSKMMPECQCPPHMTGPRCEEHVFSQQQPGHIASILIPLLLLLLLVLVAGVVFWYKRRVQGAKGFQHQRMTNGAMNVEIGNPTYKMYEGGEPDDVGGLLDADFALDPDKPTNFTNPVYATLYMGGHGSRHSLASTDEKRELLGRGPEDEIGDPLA

| Kd [1] [nM] | Substance | Kd (amyloid-β (Homo sapiens)) [nM] |
| --- | --- | --- |
|  | LRP1 (from UniProt Q07954) | 0.57 |
| 117 | recombinant human APOE2 (from UniProt P02649 19-317) (natural protein) |  |
| 114 | recombinant human APOE4 (from UniProt P02649 19-317) (natural protein) |  |
